Experimental data published in patent US20090203035A1 (University of California, published 2009).

Target: the molecule itself
Test: gel filtration (self-association / dimerization check)

Protein | binding result
mOrange2 (other, Engineered monomeric orange fluorescent protein derived from mOrange (DsRed lineage); also called mOrange Q64H/F99Y/E160K/G196D; not shown: N-terminal 6xHis tag and linker encoded by the pBAD expression vector) MVSKGEENNMAIIKEFMRFKVRMEGSVNGHEFEIEGEGEGRPYEGFQTAKLKVTKGGPLPFAWDILSPHFTYGSKAYVKHPADIPDYFKLSFPEGFKWERVMNYEDGGVVTVTQDSSLQDGEFIYKVKLRGTNFPSDGPVMQKKTMGWEASSERMYPEDGALKGKIKMRLKLKDGGHYTSEVKTTYKAKKPVQLPGAYIVDIKLDITSHNEDYTIVEQYERAEGRHSTGGMDELYK | no binding
TagRFP-T (other, Engineered fluorescent protein, the S158T variant of TagRFP (eqFP578 lineage); also called TagRFP S158T; not shown: N-terminal 6xHis tag and linker encoded by the pBAD expression vector) MVSKGEELIKENMHMKLYMEGTVNNHHFKCTSEGEGKPYEGTQTMRIKVVEGGPLPFAFDILATSFMYGSRTFINHTQGIPDFFKQSFPEGFTWERVTTYEDGGVLTATQDTSLQDGCLIYNVKIRGVNFPSNGPVMQKKTLGWEANTEMLYPADGGLEGRTDMALKLVGGGHLICNFKTTYRSKKPAKNLKMPGVYYVDHRLERIKEADKETYVEQHEVAVARYCDLPSKLGHKLNGMDELYK | no binding
